From patent publication US20200147177A1, “INTERLEUKIN 12 (IL12) OR DERIVATIVE THEREOF FOR USE IN THE TREATMENT OF SECONDARY DISEASE” (priority 2017, published 2020) come the findings set out here.

One assay concerns E. coli, S. aureus. The experiment in a line: Bacterial pneumonia in mice cured from infection or from trauma-hemorrhage (FIG. 17). The class given is in vivo.
In a further assay the test system is Escherichia coli. Nature of the assay: Secondary E. coli pneumonia in infection-cured mice, c.f.u. in bronchoalveolar lavage. The class given is in vivo. The settings on record: IL-12 100 ng i.p. concurrent with induction of secondary pneumonia; c.f.u. from BAL 16 hours after E. coli; FIG. 4g.
Assay [1] concerns lung DC, macrophages and NK cells. The experiment in a line: Intracellular staining of DC, macrophages and lymphocytes for cytokines during secondary pneumonia. Format: in vivo, mice. The note with it: IL-12 100 ng i.p.; secondary pneumonia 7 days after primary E. coli pneumonia; FIG. 11e. The procedure:
For intracellular staining of cytokines in DC or lymphocytes, cell suspensions were obtained by mechanical and collagenase digestion of lungs collected 16 hours after injection of E. coli. Cells were cultured 4 hours in complete media with Golgi Plug, washed twice and then stained for surface markers. Fixation and permeabilization was performed following manufacturer instructions (BD Cytofix/Cytoperm kit, BD Bioscience). Anti-cytokine antibody was incubated overnight at 4° C. Cells were washed twice before FACS analysis.
Mice were treated with IL-12 (100 ng i.p., Abcam) concomitantly to the induction of the secondary pneumonia. Anti-TGFβ monoclonal antibody (1B11, 44 μg i.p. every 3 days) or isotype control IgG1 monoclonal antibody (MG1-45, Biolegend) injections were performed 3 and 6 days after primary pneumonia. TGF-β (1 μg i.p., Thermofisher) was injected once 6 days after primary pneumonia in DT-treated CD11c-DTR chimeric mice

The next assay has as its system NK cells. The experiment in a line: Functional assay of NK cells in PBMC treated or not overnight with IL12. The note with it: PBMC of traumatic-brain injured patients day 1 and day 7 and healthy controls; overnight IL-12; 5-hours functional assay; FIG. 18. Format: cell-based, human. The source says:
(i) spontaneous lysis with and without O/N treatment with IL-12 of PBMC of traumatic-brain injured patients on days 1 (d1) (n=5) and day 7(d7) (n=5) and healthy controls (HC) (n=5) and (ii) reverse ADCC with and without O/N treatment with IL-12 of PBMC of TBI on days 1 (n=6) and 7 (n=6) and HC (n=4)
EDTA-anticoagulated blood samples were withdrawn seven days after primary infection in septic patients (IBIS sepsis), or at day 1 and day 7 ICU admission in trauma patients. Peripheral blood mononuclear cells (PBMCs) were isolated by centrifugation, frozen in liquid nitrogen in a 10% DMSO solution and stored until analysis.

B1: IL-12: heterodimeric cytokine encoded by IL-12A (p35) and IL-12B (p40); Abcam, 100 ng i.p. (protein, UniProt P43431 23-215; P43432 23-335, looked up)
Interleukin-12 subunit alpha: RVIPVSGPARCLSQSRNLLKTTDDMVKTAREKLKHYSCTAEDIDHEDITRDQTSTLKTCLPLELHKNESCLATRETSSTTRGSCLPPQKTSLMMTLCLGSIYEDLKMYQTEFQAINAALQNHNHQQIILDKGMLVAIDELMQSLNHNGETLRQKPPVGEADPYRVKMKLCILLHAFSTRVVTINRVMGYLSSA
Interleukin-12 subunit beta: MWELEKDVYVVEVDWTPDAPGETVNLTCDTPEEDDITWTSDQRHGVIGSGKTLTITVKEFLDAGQYTCHKGGETLSHSHLLLHKKENGIWSTEILKNFKNKTFLKCEAPNYSGRFTCSWLVQRNMDLKFNIKSSSSSPDSRAVTCGMASLSAEKVTLDQRDYEKYSVSCQEDVTCPTAEETLPIELALEARQQNKYENYSTSFFIRDIIKPDPPKNLQMKPLKNSQVEVSWEYPDSWSTPHSYFSLKFFVRIQRKKEKMKETEEGCNQKGAFLVEKTSTEVQCKGGNVCVQAQDRYYNSSCSKWACVPCRVRS
On to B1, for which, in the assay with E. coli, S. aureus, the “clinical recovery during bacterial pneumonia” value is on record as “enhances clinical recovery” and the “innate immune response during bacterial pneumonia” value was “restores innate immune response”. For the same molecule, the “bacterial clearance during secondary pneumonia” value in the assay with Escherichia coli is on record as “enhanced bacterial clearance”. Further, the “IFN-γ production by NK cells during secondary pneumonia” value in assay [1] is listed as “restored”. The “responsiveness of NK cells to IL-12 (IFNγ+ CD107a+ NK cells)” value in the assay on NK cells is “remain responsive”.
